Data published in publication PMC6349045.

Assays:
[1] = target: T1, NP220 DNA-binding domain (NP220DB) (UniProt Q14966 1240-1478); assay: EMSA
T1 sequence: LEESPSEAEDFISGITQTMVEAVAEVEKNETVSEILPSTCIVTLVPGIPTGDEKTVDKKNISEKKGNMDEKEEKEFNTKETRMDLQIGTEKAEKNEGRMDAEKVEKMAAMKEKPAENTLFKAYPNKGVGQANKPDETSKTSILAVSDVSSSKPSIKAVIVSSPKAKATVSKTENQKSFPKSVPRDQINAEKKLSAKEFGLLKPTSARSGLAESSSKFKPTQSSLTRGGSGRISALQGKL

[2] = target: T1, NP220 DNA-binding domain (NP220DB); assay: competition
[3] = target: T1, NP220 DNA-binding domain (NP220DB); assay: competition; remark: listed apart in the source

B1: Bio-DNA84 (MLV U3 LTR fragment) (dsDNA)
DNA 1: AGGATATCTGTGGTAAGCAGTTCCTGCCCCGGCTCAGGGCCAAGAACAGATGGTCCCCAGATGCGGTCCAGCCCTCAGCAGTTT
DNA 2: AAACTGCTGAGGGCTGGACCGCATCTGGGGACCATCTGTTCTTGGCCCTGAGCCGGGGCAGGAACTGCTTACCACAGATATCCT
[1]
  binding result: binds

B2: DNA84 (unlabeled) (dsDNA)
DNA 1: B1 DNA 1
DNA 2: B1 DNA 2
[2]
  binding result: binds

B3: DNA72 (NP220 sites deleted) (dsDNA)
DNA 1: AGGATATCTGTGGTAAGCAGTTCCTGCTCAGGGCCAAGAACAGATGGTATGCGGTCCAGCCCTCAGCAGTTT
DNA 2: AAACTGCTGAGGGCTGGACCGCATACCATCTGTTCTTGGCCCTGAGCAGGAACTGCTTACCACAGATATCCT
[3]
  binding result: no binding
